Results: patent publication US20140206609A1 (Sanofi, published 2014)
Like-named read-outs stand apart in the source and are kept apart here. *1 amine or outer side, *2 acyl side, *3 side chain or, on linkers, in order; H or OH if unused. Where no end group is shown, it is not given here. Side-chain parts run from the residue outwards. [ ]: non-standard residue; d: D form. The star is where a group is joined. γGlu = O=C(O)[C@H](CCC(=O)[*:2])N[*:1]; Palmitoyl = CCCCCCCCCCCCCCCC(=O)*; Aib = CC(C)(N)C(=O)O

Key:
Experiment in all cases: cell-based or functional assay
[1] = biological target: T1, human GLP-1 receptor (human, UniProt P43220 24-463)
[2] = biological target: T2, human GIP receptor (human, UniProt P48546 22-466)
T2 sequence (looked up): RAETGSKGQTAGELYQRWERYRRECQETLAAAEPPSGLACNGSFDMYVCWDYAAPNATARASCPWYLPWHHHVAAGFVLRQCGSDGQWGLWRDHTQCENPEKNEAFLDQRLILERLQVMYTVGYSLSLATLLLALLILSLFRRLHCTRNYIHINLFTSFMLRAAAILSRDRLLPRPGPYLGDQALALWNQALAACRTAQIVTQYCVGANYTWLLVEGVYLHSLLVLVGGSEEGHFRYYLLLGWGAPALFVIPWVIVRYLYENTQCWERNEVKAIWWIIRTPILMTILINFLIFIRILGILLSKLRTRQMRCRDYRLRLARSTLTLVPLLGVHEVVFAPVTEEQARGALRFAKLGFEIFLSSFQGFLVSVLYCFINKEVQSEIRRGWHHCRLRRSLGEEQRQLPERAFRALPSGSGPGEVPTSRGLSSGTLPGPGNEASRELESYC

[3] = biological target: human glucagon receptor (human, UniProt P47871 26-477)
human glucagon receptor, sequence (P47871 26-477): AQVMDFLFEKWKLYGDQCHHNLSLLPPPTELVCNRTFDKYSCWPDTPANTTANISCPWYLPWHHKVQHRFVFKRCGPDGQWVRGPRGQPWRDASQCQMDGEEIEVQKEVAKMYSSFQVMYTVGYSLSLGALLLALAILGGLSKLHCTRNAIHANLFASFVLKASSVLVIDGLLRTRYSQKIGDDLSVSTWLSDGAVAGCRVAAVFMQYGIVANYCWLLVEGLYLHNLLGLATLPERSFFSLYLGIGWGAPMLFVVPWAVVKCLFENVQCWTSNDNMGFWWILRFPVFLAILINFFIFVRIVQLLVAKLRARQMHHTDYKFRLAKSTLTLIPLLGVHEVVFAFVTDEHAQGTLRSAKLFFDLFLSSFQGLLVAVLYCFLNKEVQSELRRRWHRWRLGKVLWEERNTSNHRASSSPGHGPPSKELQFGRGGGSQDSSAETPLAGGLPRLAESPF

[4] = biological target: T1, human GLP-1 receptor; remark: listed apart in the source
[5] = biological target: T2, human GIP receptor; remark: listed apart in the source

B1: SEQ ID NO: 36 (peptide)
peptide: Y[Aib]EGTFTSDLSIQK([γGlu-Palmitoyl])EKRAA[Aib]EFIEWLKAGGPSSGAPPPS-NH2
modifications: N-terminus assumed
SMILES: CCCCCCCCCCCCCCCC(=O)N[C@@H](CCC(=O)NCCCC[C@H](NC(=O)[C@H](CCC(N)=O)NC(=O)[C@@H](NC(=O)[C@H](CO)NC(=O)[C@H](CC(C)C)NC(=O)[C@H](CC(=O)O)NC(=O)[C@H](CO)NC(=O)[C@@H](NC(=O)[C@H](Cc1ccccc1)NC(=O)[C@@H](NC(=O)CNC(=O)[C@H](CCC(=O)O)NC(=O)C(C)(C)NC(=O)[C@@H](N)Cc1ccc(O)cc1)[C@@H](C)O)[C@@H](C)O)[C@@H](C)CC)C(=O)N[C@@H](CCC(=O)O)C(=O)N[C@@H](CCCCN)C(=O)N[C@@H](CCCNC(=N)N)C(=O)N[C@@H](C)C(=O)N[C@@H](C)C(=O)NC(C)(C)C(=O)N[C@@H](CCC(=O)O)C(=O)N[C@@H](Cc1ccccc1)C(=O)N[C@H](C(=O)N[C@@H](CCC(=O)O)C(=O)N[C@@H](Cc1c[nH]c2ccccc12)C(=O)N[C@@H](CC(C)C)C(=O)N[C@@H](CCCCN)C(=O)N[C@@H](C)C(=O)NCC(=O)NCC(=O)N1CCC[C@H]1C(=O)N[C@@H](CO)C(=O)N[C@@H](CO)C(=O)NCC(=O)N[C@@H](C)C(=O)N1CCC[C@H]1C(=O)N1CCC[C@H]1C(=O)N1CCC[C@H]1C(=O)N[C@@H](CO)C(N)=O)[C@@H](C)CC)C(=O)O
- EC50 hGLP-1 R [pM] [1]: 3.4 pM
- EC50 hGIP R [pM] [2]: 6.4 pM
- EC50 hGLUC R [pM] [3]: 5780 pM

B2: SEQ ID NO: 40 (peptide)
peptide: Y[Aib]QGTFTSDLSIQLESRAAQDFIEWLKAGGPSSGAPPPS-NH2
modifications: N-terminus assumed
SMILES: CC[C@H](C)[C@H](NC(=O)[C@H](Cc1ccccc1)NC(=O)[C@H](CC(=O)O)NC(=O)[C@H](CCC(N)=O)NC(=O)[C@H](C)NC(=O)[C@H](C)NC(=O)[C@H](CCCNC(=N)N)NC(=O)[C@H](CO)NC(=O)[C@H](CCC(=O)O)NC(=O)[C@H](CC(C)C)NC(=O)[C@H](CCC(N)=O)NC(=O)[C@@H](NC(=O)[C@H](CO)NC(=O)[C@H](CC(C)C)NC(=O)[C@H](CC(=O)O)NC(=O)[C@H](CO)NC(=O)[C@@H](NC(=O)[C@H](Cc1ccccc1)NC(=O)[C@@H](NC(=O)CNC(=O)[C@H](CCC(N)=O)NC(=O)C(C)(C)NC(=O)[C@@H](N)Cc1ccc(O)cc1)[C@@H](C)O)[C@@H](C)O)[C@@H](C)CC)C(=O)N[C@@H](CCC(=O)O)C(=O)N[C@@H](Cc1c[nH]c2ccccc12)C(=O)N[C@@H](CC(C)C)C(=O)N[C@@H](CCCCN)C(=O)N[C@@H](C)C(=O)NCC(=O)NCC(=O)N1CCC[C@H]1C(=O)N[C@@H](CO)C(=O)N[C@@H](CO)C(=O)NCC(=O)N[C@@H](C)C(=O)N1CCC[C@H]1C(=O)N1CCC[C@H]1C(=O)N1CCC[C@H]1C(=O)N[C@@H](CO)C(N)=O
- EC50 hGLP-1 R [pM] [4]: 3.2 pM
- EC50 hGIP R [pM] [5]: 858 pM

B3: SEQ ID NO: 35 (peptide)
peptide: Y[Aib]EGTFTSDLSIQK([γGlu-Palmitoyl])ESRAA[Aib]EFIEWLKAGGPSSGAPPPS-NH2
modifications: N-terminus assumed
SMILES: CCCCCCCCCCCCCCCC(=O)N[C@@H](CCC(=O)NCCCC[C@H](NC(=O)[C@H](CCC(N)=O)NC(=O)[C@@H](NC(=O)[C@H](CO)NC(=O)[C@H](CC(C)C)NC(=O)[C@H](CC(=O)O)NC(=O)[C@H](CO)NC(=O)[C@@H](NC(=O)[C@H](Cc1ccccc1)NC(=O)[C@@H](NC(=O)CNC(=O)[C@H](CCC(=O)O)NC(=O)C(C)(C)NC(=O)[C@@H](N)Cc1ccc(O)cc1)[C@@H](C)O)[C@@H](C)O)[C@@H](C)CC)C(=O)N[C@@H](CCC(=O)O)C(=O)N[C@@H](CO)C(=O)N[C@@H](CCCNC(=N)N)C(=O)N[C@@H](C)C(=O)N[C@@H](C)C(=O)NC(C)(C)C(=O)N[C@@H](CCC(=O)O)C(=O)N[C@@H](Cc1ccccc1)C(=O)N[C@H](C(=O)N[C@@H](CCC(=O)O)C(=O)N[C@@H](Cc1c[nH]c2ccccc12)C(=O)N[C@@H](CC(C)C)C(=O)N[C@@H](CCCCN)C(=O)N[C@@H](C)C(=O)NCC(=O)NCC(=O)N1CCC[C@H]1C(=O)N[C@@H](CO)C(=O)N[C@@H](CO)C(=O)NCC(=O)N[C@@H](C)C(=O)N1CCC[C@H]1C(=O)N1CCC[C@H]1C(=O)N1CCC[C@H]1C(=O)N[C@@H](CO)C(N)=O)[C@@H](C)CC)C(=O)O
- EC50 hGLP-1 R [pM] [1]: 6.9 pM
- EC50 hGIP R [pM] [2]: 7.3 pM
- EC50 hGLUC R [pM] [3]: 39100 pM

B4: SEQ ID NO: 37 (peptide)
peptide: Y[Aib]QGTFTSDLSIQK([γGlu-Palmitoyl])DSRAAQDFIEWLKAGGPSSGAPPPS-NH2
modifications: N-terminus assumed
SMILES: CCCCCCCCCCCCCCCC(=O)N[C@@H](CCC(=O)NCCCC[C@H](NC(=O)[C@H](CCC(N)=O)NC(=O)[C@@H](NC(=O)[C@H](CO)NC(=O)[C@H](CC(C)C)NC(=O)[C@H](CC(=O)O)NC(=O)[C@H](CO)NC(=O)[C@@H](NC(=O)[C@H](Cc1ccccc1)NC(=O)[C@@H](NC(=O)CNC(=O)[C@H](CCC(N)=O)NC(=O)C(C)(C)NC(=O)[C@@H](N)Cc1ccc(O)cc1)[C@@H](C)O)[C@@H](C)O)[C@@H](C)CC)C(=O)N[C@@H](CC(=O)O)C(=O)N[C@@H](CO)C(=O)N[C@@H](CCCNC(=N)N)C(=O)N[C@@H](C)C(=O)N[C@@H](C)C(=O)N[C@@H](CCC(N)=O)C(=O)N[C@@H](CC(=O)O)C(=O)N[C@@H](Cc1ccccc1)C(=O)N[C@H](C(=O)N[C@@H](CCC(=O)O)C(=O)N[C@@H](Cc1c[nH]c2ccccc12)C(=O)N[C@@H](CC(C)C)C(=O)N[C@@H](CCCCN)C(=O)N[C@@H](C)C(=O)NCC(=O)NCC(=O)N1CCC[C@H]1C(=O)N[C@@H](CO)C(=O)N[C@@H](CO)C(=O)NCC(=O)N[C@@H](C)C(=O)N1CCC[C@H]1C(=O)N1CCC[C@H]1C(=O)N1CCC[C@H]1C(=O)N[C@@H](CO)C(N)=O)[C@@H](C)CC)C(=O)O
- EC50 hGLP-1 R [pM] [1]: 8.9 pM
- EC50 hGIP R [pM] [2]: 21.2 pM
- EC50 hGLUC R [pM] [3]: 32 pM

B5: SEQ ID NO: 34 (peptide)
peptide: Y[Aib]EGTFTSDLSIQK([γGlu-Palmitoyl])EKRAAQEFIEWLKAGGPSSGAPPPS-NH2
modifications: N-terminus assumed
SMILES: CCCCCCCCCCCCCCCC(=O)N[C@@H](CCC(=O)NCCCC[C@H](NC(=O)[C@H](CCC(N)=O)NC(=O)[C@@H](NC(=O)[C@H](CO)NC(=O)[C@H](CC(C)C)NC(=O)[C@H](CC(=O)O)NC(=O)[C@H](CO)NC(=O)[C@@H](NC(=O)[C@H](Cc1ccccc1)NC(=O)[C@@H](NC(=O)CNC(=O)[C@H](CCC(=O)O)NC(=O)C(C)(C)NC(=O)[C@@H](N)Cc1ccc(O)cc1)[C@@H](C)O)[C@@H](C)O)[C@@H](C)CC)C(=O)N[C@@H](CCC(=O)O)C(=O)N[C@@H](CCCCN)C(=O)N[C@@H](CCCNC(=N)N)C(=O)N[C@@H](C)C(=O)N[C@@H](C)C(=O)N[C@@H](CCC(N)=O)C(=O)N[C@@H](CCC(=O)O)C(=O)N[C@@H](Cc1ccccc1)C(=O)N[C@H](C(=O)N[C@@H](CCC(=O)O)C(=O)N[C@@H](Cc1c[nH]c2ccccc12)C(=O)N[C@@H](CC(C)C)C(=O)N[C@@H](CCCCN)C(=O)N[C@@H](C)C(=O)NCC(=O)NCC(=O)N1CCC[C@H]1C(=O)N[C@@H](CO)C(=O)N[C@@H](CO)C(=O)NCC(=O)N[C@@H](C)C(=O)N1CCC[C@H]1C(=O)N1CCC[C@H]1C(=O)N1CCC[C@H]1C(=O)N[C@@H](CO)C(N)=O)[C@@H](C)CC)C(=O)O
- EC50 hGLP-1 R [pM] [1]: 4.6 pM
- EC50 hGIP R [pM] [2]: 22.2 pM
- EC50 hGLUC R [pM] [3]: 11600 pM
